Usually Kd stands for the equilibrium constant for the complex coming apart. What is called koff is the rate constant with which the complex falls apart. The term kon denotes the second-order rate constant of association.

The values below come from patent US20240316154A1 (Eli Lilly, published 2024).

Read-outs that look alike come from different tables or passages of the source.

Test [1] deals with human ErbB4 receptor (NCBI Ref. Seq. No. NP_001036064.1) (human, UniProt Q15303 26-1308). The experiment in a line: cell-based or functional assay.
In test [2] the target is T1, Rat serum albumin (rat, UniProt P02770 25-608).
T1 construct: bought; immobilised on a CM5 chip by amine coupling; also called Rat SA
Briefly: SPR, SA on chip, 1:1 fit, 25 C. (Surface plasmon resonance follows binding to a sensor surface in real time, without labels.)

In test [3] the target is T2, Cynomolgus monkey serum albumin (cynomolgus monkey, UniProt A2V9Z4 25-608).
T2 construct: bought; immobilised on a CM5 chip by amine coupling; also called Cyno SA
The experiment in a line: SPR, SA on chip, 1:1 fit, 25 C.

The target in test [4] is T3, Cow serum albumin (cow, UniProt P02769 25-607).
T3 construct: bought; immobilised on a CM5 chip by amine coupling; also called Cow SA
The experiment in a line: SPR, SA on chip, 1:1 fit, 25 C.

In test [5] the target is T4, Dog serum albumin (dog, UniProt P49822 25-608).
T4 construct: bought; immobilised on a CM5 chip by amine coupling; also called Dog SA
The experiment in a line: SPR, SA on chip, 1:1 fit, 25 C.

In test [6] the target is T5, Human serum albumin (human, UniProt P02768 25-609).
T5 construct: bought; immobilised on a CM5 chip by amine coupling; also called Human SA
Briefly: SPR, SA on chip, 1:1 fit, 25 C.

Test [7] has as its target T6, Mouse serum albumin (mouse, UniProt P07724 25-608).
T6 construct: bought; immobilised on a CM5 chip by amine coupling; also called Mouse SA
The experiment in a line: SPR, SA on chip, 1:1 fit, 25 C.

The target in test [8] is T7, Pig serum albumin (pig, UniProt P08835 25-607).
T7 construct: bought; immobilised on a CM5 chip by amine coupling; also called Pig SA
Briefly: SPR, SA on chip, 1:1 fit, 25 C.

Test [9] deals with T8, Rabbit serum albumin (rabbit, UniProt P49065 25-608).
T8 construct: bought; immobilised on a CM5 chip by amine coupling; also called Rabbit SA
Briefly: SPR, SA on chip, 25 C.

Test [10] addresses T8, Rabbit serum albumin. Briefly: SPR, SA on chip, 25 C. The source holds these as a separate data set.
Test [11] has as its target human GFRAL and human RET on HEK293 cells (human, UniProt Q6UXV0 19-394; P07949 29-1114). The experiment in a line: cell-based or functional assay.
The target in test [12] is T3, Cow serum albumin. The experiment in a line: SPR, SA on chip, 25 C; ka and kd printed as *not applicable.
In test [13] the target is T1, Rat serum albumin. Briefly: SPR, SA on chip, 1:1 fit, 25 C. The source holds these as a separate data set.
Test [14] deals with T2, Cynomolgus monkey serum albumin. Briefly: SPR, SA on chip, 1:1 fit, 25 C. The source holds these as a separate data set.
Test [15] addresses T4, Dog serum albumin. Briefly: SPR, SA on chip, 1:1 fit, 25 C. This is another data set of the same source.
The target in test [16] is T5, Human serum albumin. The experiment in a line: SPR, SA on chip, 1:1 fit, 25 C. This is another data set of the same source.
The target in test [17] is T6, Mouse serum albumin. The experiment in a line: SPR, SA on chip, 1:1 fit, 25 C. This is another data set of the same source.
The target in test [18] is T7, Pig serum albumin. Briefly: SPR, SA on chip, 1:1 fit, 25 C. This is another data set of the same source.
The target of test [19] is T8, Rabbit serum albumin. Briefly: SPR, SA on chip, 25 C. The source holds these as a separate data set.
The target in test [20] is T1, Rat serum albumin. Briefly: SPR, SA on chip, 1:1 fit, 25 C. This is another data set of the same source.
Test [21] concerns the target T2, Cynomolgus monkey serum albumin. The experiment in a line: SPR, SA on chip, 1:1 fit, 25 C. This is another data set of the same source.
In test [22] the target is T3, Cow serum albumin. The experiment in a line: SPR, SA on chip, 1:1 fit, 25 C. This is another data set of the same source.
The target in test [23] is T4, Dog serum albumin. The experiment in a line: SPR, SA on chip, 1:1 fit, 25 C. This is another data set of the same source.
Test [24] deals with T5, Human serum albumin. The experiment in a line: SPR, SA on chip, 1:1 fit, 25 C. The source holds these as a separate data set.
Test [25] deals with T6, Mouse serum albumin. Briefly: SPR, SA on chip, 1:1 fit, 25 C. The source holds these as a separate data set.
For test [26], the target named is T7, Pig serum albumin. Briefly: SPR, SA on chip, 1:1 fit, 25 C. This is another data set of the same source.
In test [27] the target is IL-2 receptor-dimer pair of the PathHunter IL-2 BioAssay cells. Briefly: cell-based or functional assay.
In test [28] the target is T8, Rabbit serum albumin. The experiment in a line: SPR, SA on chip, 25 C. The source holds these as a separate data set.
Test [29] addresses T1, Rat serum albumin. The experiment in a line: SPR, SA on chip, 1:1 fit, 25 C. The source holds these as a separate data set.
Test [30] concerns the target T2, Cynomolgus monkey serum albumin. The experiment in a line: SPR, SA on chip, 1:1 fit, 25 C. The source holds these as a separate data set.
In test [31] the target is T3, Cow serum albumin. Briefly: SPR, SA on chip, 1:1 fit, 25 C. This is another data set of the same source.
In test [32] the target is T4, Dog serum albumin. Briefly: SPR, SA on chip, 1:1 fit, 25 C. The source holds these as a separate data set.
Test [33] addresses T5, Human serum albumin. The experiment in a line: SPR, SA on chip, 1:1 fit, 25 C. The source holds these as a separate data set.
In test [34] the target is T6, Mouse serum albumin. Briefly: SPR, SA on chip, 1:1 fit, 25 C. This is another data set of the same source.
Test [35] concerns the target T7, Pig serum albumin. The experiment in a line: SPR, SA on chip, 1:1 fit, 25 C. The source holds these as a separate data set.

B1: VHH-based fusion of Example 3, VHH fusion 3 (NRG1-(G4Q)5-MC6.1C22.43) (other)
chain: SHLVKCAEKEKTFCVNGGECFMVKDLSNPSRYLCKCPNEFTGDRCQNYVMASFYKHLGIEFMEAEELYQGGGGQGGGGQGGGGQGGGGQGGGGQEVQLLESGGGLVQPGGSLRLSCAASGRYIDETAVAWFRQAPGKEREFVAGIGGGVDITYYADSVKGRFTISRDNSKNTLYLQMNSLRPEDTAVYYCAARPGRPLITSKVADLYPYWGQGTLVTVSSPP
notes: also called Compound 3; NRG1-VHH fusion
B1: the “EC50 (ng/mL), PathHunter ErbB4/ErbB4 dimerization assay” value in test [1] is 33.5 ng/mL. The dissociation constant (Kd) worked out at 52 nM in test [2]; 6.1 nM in test [3]; 470 nM in test [4]; 19 nM in [5]; 1.9 nM in [6]; 62 nM in [7]. This molecule showed a Kd in [8] of 130 nM. For the same molecule, the koff stood at 0.006 s⁻¹ in test [2]; 0.00087 s⁻¹ in test [3]; 0.072 s⁻¹ in [4]; 0.0032 s⁻¹ in [5]; 0.00023 s⁻¹ in test [6]; 0.0088 s⁻¹ in test [7]. In test [8], this molecule registered a koff of 0.012 s⁻¹. Moreover, the kon was determined as 120000 M⁻¹ s⁻¹ in [2]; 140000 M⁻¹ s⁻¹ in test [3]; 160000 M⁻¹ s⁻¹ in test [4]; 170000 M⁻¹ s⁻¹ in test [5]; 120000 M⁻¹ s⁻¹ in [6]; 140000 M⁻¹ s⁻¹ in test [7]. In [8], this molecule had a kon of 93000 M⁻¹ s⁻¹. Besides, the binding result in test [9] is recorded as “no binding (tested: up to 1000 nM)”.

B2: VHH-based fusion of Example 5, VHH fusion 5 (MC6.1C22-(G4Q)5-GDF15) (other)
chain: EVQLLESGGGLVQPGGSLRLSCAASGRYIDETAVAWFRQAPGKEREFVAGIGGGVDITYYADSVKGRFTISRDNSKNTLYLQMNSLRPEDTAVYYCAARPGRPLITSKVADLYPYWGQGTLVTVSSGGGGQGGGGQGGGGQGGGGQGGGGQGDHCPLGPGRCCRLHTVRASLEDLGWADWVLSPREVQVTMCIGACPSQFRAANMHAQIKTSLHRLKPDTVPAPCCVPASYNPMVLIQKTDTGVSLQTYDDLLAKDCHCI
notes: also called Compound 5; VHH-GDF15 fusion
As to B2, the binding result in test [10] is recorded as “no binding (tested: up to 1000 nM)”. Moreover, the “hGFRAL/RET EC50 (pM), p-ERK1/2 AlphaLISA” value in test [11] was found to be 101 pM. Also, the Kd in test [12] was found to be 28 nM; in [13], 0.74 nM; in test [14], 0.45 nM; in [15], 0.6 nM; in test [16] it was 0.2 nM; in [17], 0.86 nM. The Kd in test [18] is 3.3 nM. The koff was 0.00077 s⁻¹ in test [13]; 0.00034 s⁻¹ in test [14]; 0.00068 s⁻¹ in test [15]; 0.00014 s⁻¹ in test [16]; 0.0012 s⁻¹ in test [17]; 0.0028 s⁻¹ in test [18]. The kon in [13] stood at 1e+06 M⁻¹ s⁻¹; in test [14], 740000 M⁻¹ s⁻¹; in test [15], 1.1e+06 M⁻¹ s⁻¹; in [16], 670000 M⁻¹ s⁻¹; in test [17], 1.4e+06 M⁻¹ s⁻¹; in test [18] it was 850000 M⁻¹ s⁻¹.

B3: VHH-based fusion of Example 4, VHH fusion 4 (MC6.1C22-(G4Q)5-NRG1) (other)
chain: EVQLLESGGGLVQPGGSLRLSCAASGRYIDETAVAWFRQAPGKEREFVAGIGGGVDITYYADSVKGRFTISRDNSKNTLYLQMNSLRPEDTAVYYCAARPGRPLITSKVADLYPYWGQGTLVTVSSGGGGQGGGGQGGGGQGGGGQGGGGQSHLVKCAEKEKTFCVNGGECFMVKDLSNPSRYLCKCPNEFTGDRCQNYVMASFYKHLGIEFMEAEELYQ
notes: also called Compound 4; VHH-NRG1 fusion
Take B3: the “EC50 (ng/mL), PathHunter ErbB4/ErbB4 dimerization assay” value in test [1] was found to be 112 ng/mL. Also, the binding result in [19] was “no binding (tested: up to 1000 nM)”. The Kd in [20] is 3.1 nM; in test [21] it was 0.94 nM; in test [22] it was 100 nM; in test [23], 2.2 nM; in test [24], 0.19 nM; in [25] it was 6.4 nM. In test [26], this molecule showed a Kd of 15 nM. In addition, the dissociation rate constant (koff) is 0.003 s⁻¹ in test [20]; 0.00063 s⁻¹ in [21]; 0.058 s⁻¹ in [22]; 0.0017 s⁻¹ in test [23]; 0.00019 s⁻¹ in test [24]; 0.0042 s⁻¹ in test [25]. In test [26], this molecule had an off-rate constant (koff) of 0.006 s⁻¹. The kon came to 970000 M⁻¹ s⁻¹ in [20]; 680000 M⁻¹ s⁻¹ in [21]; 570000 M⁻¹ s⁻¹ in [22]; 780000 M⁻¹ s⁻¹ in test [23]; 1e+06 M⁻¹ s⁻¹ in [24]; 660000 M⁻¹ s⁻¹ in test [25]. Besides, the association rate constant (kon) in test [26] came out at 400000 M⁻¹ s⁻¹.

B4: VHH-based fusion of Example 6, VHH fusion 6 (IL2-(G4Q)5-MC6.1C22.43) (other)
chain: APQSSSTQQTQLQLEHLLLDLQMILNGINNYKNPKLTRMLTFKFYMPKKATELKHLQCLEEELKPLEEVLNLAQSKNFHLRPRDLISRINVIVLELKGSETTFMCEYADETATIVEFLNRWITFAQSIISTLTGGGGQGGGGQGGGGQGGGGQGGGGQEVQLLESGGGLVQPGGSLRLSCAASGRYIDETAVAWFRQAPGKEREFVAGIGGGVDITYYADSVKGRFTISRDNSKNTLYLQMNSLRPEDTAVYYCAARPGRPLITSKVADLYPYWGQGTLVTVSSPP
notes: also called Compound 6; IL-2-VHH fusion
Take B4: the “EC50 (nM), PathHunter IL-2 BioAssay” value in test [27] turned out to be 6.7 nM. Also, the binding result in test [28] is given as “no binding (tested: up to 1000 nM)”. The equilibrium dissociation constant (Kd) in [29] was found to be 34 nM; in test [30], 5 nM; in [31] it was 380 nM; in test [32], 19 nM; in test [33], 1.5 nM; in [34] it was 50 nM. In [35], this molecule had a Kd of 100 nM. Moreover, the koff in test [29] was found to be 0.0066 s⁻¹; in test [30], 0.00088 s⁻¹; in test [31] it was 0.071 s⁻¹; in test [32] it was 0.0034 s⁻¹; in test [33] it was 0.00026 s⁻¹; in [34], 0.0087 s⁻¹. Also, in [35], the koff is 0.012 s⁻¹. Besides, the kon came out at 190000 M⁻¹ s⁻¹ in [29]; 180000 M⁻¹ s⁻¹ in [30]; 190000 M⁻¹ s⁻¹ in test [31]; 170000 M⁻¹ s⁻¹ in test [32]; 180000 M⁻¹ s⁻¹ in [33]; 170000 M⁻¹ s⁻¹ in [34]. The kon in [35] worked out at 120000 M⁻¹ s⁻¹.
